Values of other authors, collected in article PMC9405863.
pKd: −log10 of the molar value.

Biological target: Calmodulin (Homo sapiens) (UniProt P0DP23)
Test: ITC

| Substance | pKd |
| --- | --- |
| STIM1 K-rich domain (from UniProt Q13586) | 6.10 |
| STIM2 K-rich domain (from UniProt Q9P246) | 6.05 |
